Test results as given in US20140018297A1 (Novo Nordisk, published 2014).

T1: FVIII (N8, turoctocog alfa), B domain truncated FVIII (human, UniProt P00451 20-2351)
T1 construct: also called F8; F8-500
T1 sequence: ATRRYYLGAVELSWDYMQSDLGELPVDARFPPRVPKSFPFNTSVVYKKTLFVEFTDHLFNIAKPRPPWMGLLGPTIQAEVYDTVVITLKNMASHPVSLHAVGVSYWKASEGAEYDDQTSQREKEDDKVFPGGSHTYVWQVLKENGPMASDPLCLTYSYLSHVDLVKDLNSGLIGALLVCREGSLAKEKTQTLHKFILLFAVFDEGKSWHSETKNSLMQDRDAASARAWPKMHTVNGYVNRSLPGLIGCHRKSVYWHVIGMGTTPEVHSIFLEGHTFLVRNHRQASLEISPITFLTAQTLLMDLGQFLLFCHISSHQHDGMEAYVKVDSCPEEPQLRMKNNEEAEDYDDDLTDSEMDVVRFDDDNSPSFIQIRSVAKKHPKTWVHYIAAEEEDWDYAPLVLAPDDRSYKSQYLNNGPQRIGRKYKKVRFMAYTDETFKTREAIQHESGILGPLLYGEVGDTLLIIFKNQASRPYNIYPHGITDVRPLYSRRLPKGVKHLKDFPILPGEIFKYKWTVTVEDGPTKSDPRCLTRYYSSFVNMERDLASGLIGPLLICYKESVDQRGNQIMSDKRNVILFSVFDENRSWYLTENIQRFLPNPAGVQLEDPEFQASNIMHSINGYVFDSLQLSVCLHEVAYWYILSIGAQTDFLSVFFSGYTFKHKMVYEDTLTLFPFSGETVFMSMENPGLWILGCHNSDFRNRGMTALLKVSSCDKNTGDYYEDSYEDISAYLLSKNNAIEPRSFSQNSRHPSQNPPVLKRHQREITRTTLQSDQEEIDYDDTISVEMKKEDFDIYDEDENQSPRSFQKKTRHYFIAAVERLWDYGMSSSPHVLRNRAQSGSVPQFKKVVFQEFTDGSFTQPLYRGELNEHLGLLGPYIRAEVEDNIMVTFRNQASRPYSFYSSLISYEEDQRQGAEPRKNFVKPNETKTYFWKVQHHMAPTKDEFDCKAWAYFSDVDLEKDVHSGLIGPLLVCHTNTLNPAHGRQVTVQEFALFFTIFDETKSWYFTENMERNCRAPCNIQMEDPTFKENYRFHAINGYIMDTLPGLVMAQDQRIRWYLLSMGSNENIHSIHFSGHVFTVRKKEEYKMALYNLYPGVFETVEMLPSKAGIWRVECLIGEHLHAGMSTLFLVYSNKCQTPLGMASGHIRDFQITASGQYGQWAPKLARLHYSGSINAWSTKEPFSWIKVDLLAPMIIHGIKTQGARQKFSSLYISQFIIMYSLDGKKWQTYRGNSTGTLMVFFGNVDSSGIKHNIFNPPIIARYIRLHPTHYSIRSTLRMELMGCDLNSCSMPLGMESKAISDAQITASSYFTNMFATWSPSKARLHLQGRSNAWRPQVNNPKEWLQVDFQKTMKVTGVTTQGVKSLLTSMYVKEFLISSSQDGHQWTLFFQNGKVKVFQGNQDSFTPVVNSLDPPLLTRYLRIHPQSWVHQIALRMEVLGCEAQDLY

T2: FVIII (as used in the competition ELISA of Example 21; form not stated) (UniProt P00451 20-2351, limits assumed)
T2 sequence (looked up): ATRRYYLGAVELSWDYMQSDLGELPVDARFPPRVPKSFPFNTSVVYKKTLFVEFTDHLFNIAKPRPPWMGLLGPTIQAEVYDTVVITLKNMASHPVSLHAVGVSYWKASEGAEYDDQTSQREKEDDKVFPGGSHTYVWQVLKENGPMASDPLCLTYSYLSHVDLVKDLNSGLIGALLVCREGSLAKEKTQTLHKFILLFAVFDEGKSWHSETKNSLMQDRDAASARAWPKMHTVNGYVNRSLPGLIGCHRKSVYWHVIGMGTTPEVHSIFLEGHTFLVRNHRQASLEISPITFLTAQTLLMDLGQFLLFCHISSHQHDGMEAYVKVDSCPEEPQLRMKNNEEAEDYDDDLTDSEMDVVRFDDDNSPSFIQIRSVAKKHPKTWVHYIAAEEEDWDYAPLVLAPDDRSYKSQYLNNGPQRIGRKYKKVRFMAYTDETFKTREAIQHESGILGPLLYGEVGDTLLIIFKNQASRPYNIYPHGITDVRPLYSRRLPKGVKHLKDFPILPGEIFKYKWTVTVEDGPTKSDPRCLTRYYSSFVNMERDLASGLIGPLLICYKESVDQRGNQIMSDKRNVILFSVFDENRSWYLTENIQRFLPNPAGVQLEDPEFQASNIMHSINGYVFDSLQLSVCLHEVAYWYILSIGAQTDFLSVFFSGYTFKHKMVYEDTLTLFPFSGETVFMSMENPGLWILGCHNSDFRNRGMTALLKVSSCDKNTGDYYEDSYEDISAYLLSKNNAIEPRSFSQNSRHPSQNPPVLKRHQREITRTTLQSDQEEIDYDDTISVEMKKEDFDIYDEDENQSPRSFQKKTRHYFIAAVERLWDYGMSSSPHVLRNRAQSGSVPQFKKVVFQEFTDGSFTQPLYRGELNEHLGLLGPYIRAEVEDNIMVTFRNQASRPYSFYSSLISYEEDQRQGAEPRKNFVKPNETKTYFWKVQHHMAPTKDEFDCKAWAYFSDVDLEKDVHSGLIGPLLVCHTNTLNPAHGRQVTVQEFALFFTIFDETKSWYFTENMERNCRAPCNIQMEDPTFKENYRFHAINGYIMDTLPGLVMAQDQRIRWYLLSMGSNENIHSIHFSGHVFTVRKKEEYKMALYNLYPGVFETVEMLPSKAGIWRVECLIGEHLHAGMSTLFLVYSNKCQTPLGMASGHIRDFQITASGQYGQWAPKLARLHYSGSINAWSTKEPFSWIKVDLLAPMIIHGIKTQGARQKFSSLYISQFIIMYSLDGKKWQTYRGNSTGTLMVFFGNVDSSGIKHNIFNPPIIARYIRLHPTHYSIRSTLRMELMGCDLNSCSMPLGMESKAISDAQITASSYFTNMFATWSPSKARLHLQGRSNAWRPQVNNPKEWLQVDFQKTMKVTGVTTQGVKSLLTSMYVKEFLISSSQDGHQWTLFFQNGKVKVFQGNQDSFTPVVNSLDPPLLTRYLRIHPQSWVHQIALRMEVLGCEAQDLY

T3: Fluorescent labelled FVIII (Oregon green-FVIII) (UniProt P00451 20-2351, limits assumed, Oregon green label)
T3 sequence (looked up): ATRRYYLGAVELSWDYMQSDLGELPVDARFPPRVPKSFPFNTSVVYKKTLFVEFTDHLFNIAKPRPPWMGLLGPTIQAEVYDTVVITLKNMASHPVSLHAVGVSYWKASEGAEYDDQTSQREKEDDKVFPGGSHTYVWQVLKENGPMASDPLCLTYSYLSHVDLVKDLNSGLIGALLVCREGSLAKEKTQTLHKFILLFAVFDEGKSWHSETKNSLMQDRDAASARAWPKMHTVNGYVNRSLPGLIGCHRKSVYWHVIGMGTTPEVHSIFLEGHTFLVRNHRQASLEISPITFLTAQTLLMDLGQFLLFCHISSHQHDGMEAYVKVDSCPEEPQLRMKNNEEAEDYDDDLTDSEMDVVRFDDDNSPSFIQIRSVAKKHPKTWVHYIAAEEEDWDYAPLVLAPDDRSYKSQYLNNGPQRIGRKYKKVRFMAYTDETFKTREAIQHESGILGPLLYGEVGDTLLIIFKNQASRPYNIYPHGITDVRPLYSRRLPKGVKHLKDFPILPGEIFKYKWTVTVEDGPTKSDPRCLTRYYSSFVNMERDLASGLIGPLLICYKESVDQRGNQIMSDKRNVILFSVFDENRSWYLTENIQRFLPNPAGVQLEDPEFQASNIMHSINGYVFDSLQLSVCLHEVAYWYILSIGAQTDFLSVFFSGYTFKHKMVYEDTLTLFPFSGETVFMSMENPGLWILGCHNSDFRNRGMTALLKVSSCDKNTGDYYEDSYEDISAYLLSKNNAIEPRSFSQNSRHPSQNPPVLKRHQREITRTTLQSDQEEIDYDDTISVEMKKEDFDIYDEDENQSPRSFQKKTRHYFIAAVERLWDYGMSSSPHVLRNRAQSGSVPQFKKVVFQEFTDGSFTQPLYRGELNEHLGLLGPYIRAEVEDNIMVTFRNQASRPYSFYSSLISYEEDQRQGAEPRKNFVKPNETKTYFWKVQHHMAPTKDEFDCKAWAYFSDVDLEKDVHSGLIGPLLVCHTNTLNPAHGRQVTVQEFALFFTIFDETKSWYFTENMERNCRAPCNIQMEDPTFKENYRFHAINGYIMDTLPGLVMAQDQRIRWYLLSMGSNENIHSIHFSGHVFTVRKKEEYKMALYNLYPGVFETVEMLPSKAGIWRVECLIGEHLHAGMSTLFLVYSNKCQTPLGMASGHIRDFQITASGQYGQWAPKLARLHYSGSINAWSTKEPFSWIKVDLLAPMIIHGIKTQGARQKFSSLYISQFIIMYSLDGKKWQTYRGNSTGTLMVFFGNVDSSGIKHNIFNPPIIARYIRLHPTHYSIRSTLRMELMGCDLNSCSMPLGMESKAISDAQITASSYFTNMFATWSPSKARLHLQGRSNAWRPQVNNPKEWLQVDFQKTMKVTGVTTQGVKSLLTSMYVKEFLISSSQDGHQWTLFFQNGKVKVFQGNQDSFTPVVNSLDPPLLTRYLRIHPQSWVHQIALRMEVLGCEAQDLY


Tests used:
[1] = target: T1, FVIII (N8, turoctocog alfa), B domain …; assay: isothermal titration calorimetry at 20° C., VWF variant injected into FVIII; ITC at 20° C.
Protocol: (§1) All protein samples are dialyzed in 50 mM Hepes pH 7.4, 150 mM NaCl, 10 mM CaCl₂ buffer. Each iTC experiment involves filling the iTC cell with FVIII (approximately 250 μL) and the syringe with VWF variants (approximately 40 μL). Temperature is set as required and the protein sample is allowed to equilibrate under given experimental conditions (approximately 10 minutes). Typically 17-20 injections (of 2-2.5 μL) of VWF variants into cell, containing FVIII, are performed. The first injection is always of 0.2 μL and is discarded from the final data analysis in order to account for diffusion during equilibration step. Stirring speed is set between 700-1000 rpm. Filter period for data collection is 5 sec with a high feedback mode setting. Each titration is spaced by 120 sec. Appropriate control experiments are performed. Raw data is processed to set baseline and integrated to obtain a final isotherm. This binding isotherm is fit to a single-site model to yield Kd, stoichiometry (n), ΔH, and ΔS values to complete characterization of VWF variant binding to FVIII.

[2] = target: T1, FVIII (N8, turoctocog alfa), B domain …; assay: Isothermal titration calorimetry at 20 °C, VWF fragment in the syringe titrated into FVIII (turoctocog alfa) in the cell, single-site fit; 50 mM Hepes pH 7.4, 150 mM NaCl, 10 mM CaCl2
Protocol: as §1

[3] = target: T2, FVIII (as used in the competition ELISA …); assay: competition ELISA; competitor coated human VWF; FVIII 1 nM pre-incubated with the fragment
Protocol: In order to investigate the binding of the different VWF fragments to FVIII the following method is used. Briefly, human VWF is coated in a microtiterplate and incubated overnight at 4° C. After blocking, a solution with pre-incubated FVIII (1 nM) and VWF/VWF-fragment is added to the plate, followed by detection with biotinylated anti FVIII antibody and streptavidin-peroxidase S-POD (1:20000). The absorbance is measured at 450/620 nm.

[4] = target: T1, FVIII (N8, turoctocog alfa), B domain …; assay: isothermal titration calorimetry at 20° C., VWF variant injected into FVIII
Protocol: as §1

[5] = target: T3, Fluorescent labelled FVIII (Oregon …); assay: cell-based or functional assay

Kd [1] [nM] | Ka [2] [M⁻¹] | IC50 [3] [nM] | stoichiometry [4] | ΔH [4] [kcal/mol] | ΔS [4] [cal/mol/deg] | IC50 (nM), FVIII uptake in dendritic cells [5] [nM] | Binder
330 | 3.02e+06 | 2000 | 1.14 | -5.82 | 9.8 |  | VWF(764-865)-ALA-HPC4 monomer (other, also called TIL′E′) SLSCRPPMVKLVCPADNLRAEGLECTKTCQNYDLECMSMGCVSGCLCPPGMVRHENRCVALERCPCFHQGKEYAPGETVKIGCNTCVCQDRKWNCTDHVCDAALAEDQVDPRLIDGK
 |  | 2200 |  |  |  | 570 | VWF(764-1041)-ALA-HPC4 monomer (other, also called 2306; TIL′/E′/VWD3 II) SLSCRPPMVKLVCPADNLRAEGLECTKTCQNYDLECMSMGCVSGCLCPPGMVRHENRCVALERCPCFHQGKEYAPGETVKIGCNTCVCQDRKWNCTDHVCDATCSTIGMAHYLTFDGLKYLFPGECQYVLVQDYCGSNPGTFRILVGNKGCSHPSVKCKKRVTILVEGGEIELFDGEVNVKRPMKDETHFEVVESGRYIILLLGKALSVVWDRHLSISVVLKQTYQEKVCGLCGNFDGIQNNDLTSSNLQVEEDPVDFGNSWKVSSQCADTRKVPLDSALAEDQVDPRLIDGK
 |  | 2000 |  |  |  |  | VWF(764-1045)-ALA-HPC4 monomer (other, also called TIL′/E′/VWD3 III) SLSCRPPMVKLVCPADNLRAEGLECTKTCQNYDLECMSMGCVSGCLCPPGMVRHENRCVALERCPCFHQGKEYAPGETVKIGCNTCVCQDRKWNCTDHVCDATCSTIGMAHYLTFDGLKYLFPGECQYVLVQDYCGSNPGTFRILVGNKGCSHPSVKCKKRVTILVEGGEIELFDGEVNVKRPMKDETHFEVVESGRYIILLLGKALSVVWDRHLSISVVLKQTYQEKVCGLCGNFDGIQNNDLTSSNLQVEEDPVDFGNSWKVSSQCADTRKVPLDSSPATALAEDQVDPRLIDGK
